Target: the molecule itself
Assay: thioflavin-T fluorescence (emission spectra and kinetics); 20 uM Th-T with 1-400 uM Stm1_N 1-113; 10 mM sodium phosphate with 10 or 150 mM NaCl, pH 7.4, 25 °C; emission at 0 h, kinetics until 72 h; signal from 50 uM onwards

B1: Stm1 N-terminal region (Stm1_N^1-113) of Saccharomyces cerevisiae Stm1 (domain or fragment, UniProt P39015 1-113, looked up)
chain: MSNPFDLLGNDVEDADVVVLPPKEIVKSNTSSKKADVPPPSADPSKARKNRPRPSGNEGAIRDKTAGRRNNRSKDVTDSATTKKSNTRRATDRHSRTGKTDTKKKVNQGWGDD
notes: Stm1, Saccharomyces cerevisiae (S288c), stm1 gene YLR150W, residues 1-113 of the 273 amino acids long protein; the insert is 342 nucleotides with the termination codon; Order in the construct: N-terminal His6-tag, GB1 solubility tag, TEV protease cleavage site, Stm1_N 1-113 (vector pDZ1, a modified pET-21a); A few residues from the TEV site and the NdeI site may be left at the N-terminus after …
binding result: binds
